Reference: publication PMC10330821

Target: native bovine chromogranin B (bCHGB) (bovine)
Test: SEC; bCHGB in detergents, re-extracted from vesicles and fractionated by gel filtration; elution position compared with recombinant mCHGB

native bovine chromogranin B (bCHGB) (natural protein)
stoichiometry N: 2
